1 molecule from patent JP2024517985A (dated 2024) can be followed below.

Experiment [1] has as its target T1, CD300c抗原(11832-H08H、Sino Biological) (UniProt Q08708 21-183).
T1 construct: Bought recombinant protein; also called CD300c; CD300c antigen
T1 sequence (looked up): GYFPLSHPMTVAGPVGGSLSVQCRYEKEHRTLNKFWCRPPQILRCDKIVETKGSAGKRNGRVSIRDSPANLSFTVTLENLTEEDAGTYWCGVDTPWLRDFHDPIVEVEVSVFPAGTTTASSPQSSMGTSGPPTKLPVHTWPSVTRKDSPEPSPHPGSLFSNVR
Put plainly: SPR, CD300c immobilised on CM5 chip, CL7 as analyte 0-6.25 ug/ml. Background: In SPR one partner is held on a chip, and binding of the other changes the refractive index at the surface.

Experiment [2] concerns the target T2, 293T細胞及びTHP-1細胞の表面で過剰発現されたCD300c (UniProt Q08708 21-224, limits assumed).
T2 construct: whole, on cells; Expression construct not described; also called CD300c overexpressed on 293T cells; CD300c overexpressed on THP-1 cells
T2 sequence (looked up): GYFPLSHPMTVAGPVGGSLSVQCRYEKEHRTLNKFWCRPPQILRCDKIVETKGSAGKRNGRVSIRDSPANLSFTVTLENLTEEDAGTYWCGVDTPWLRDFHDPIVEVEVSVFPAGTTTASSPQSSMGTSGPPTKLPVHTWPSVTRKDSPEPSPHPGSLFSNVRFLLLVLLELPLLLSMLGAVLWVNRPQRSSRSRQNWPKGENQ
Put plainly: flow cytometry (MFI) on 293T cells overexpressing CD300c, FITC anti-human IgG (H+L). A general note: A flow cytometer gives signals particle by particle.

For experiment [3], the target named is T2, 293T細胞及びTHP-1細胞の表面で過剰発現されたCD300c. The experiment can be described thus: flow cytometry (MFI) on THP-1 cells overexpressing CD300c, FITC anti-human IgG (H+L).
For experiment [4], the target named is T1, CD300c抗原(11832-H08H、Sino Biological). Put plainly: SPR, CD300c immobilised on CM5 chip, CL7 as analyte 0-6.25 ug/ml (rounded form of the same KD).

B1: 抗-CD300cモノクローナル抗体 CL7 (antibody, V domains shown)
VH: EVQLLESGGGLVQPGGSLRLSCAASGFTFSRYAMSWVRQAPGKGLEWVSAISGSGGSTYYADSVKGRFTISRDNSKNTLYLQMNSLRAEDTAVYYCARSSQGIFDIWGQGTLVTVSS
VL: QSVLTQPPSASGTPGQRVTISCSGNNIGTRRVHWYQQLPDTAPKLLIYSKNNRPSGVPDRFSGSKSGTSASLAISGLRSEDEADYYCAAWDDSLSGPVFGGGTKLTVL
For orientation: Kd means the concentration at which binding is half-saturated. Read a low Kd as higher affinity. By EC50 is commonly meant the concentration needed to bring the measured effect to its halfway point. B1: the Kd in experiment [1] and in experiment [4] was 0.52 nM each time. Further, the EC50 is 2.7 nM in experiment [2] and 2.6 nM in experiment [3].
